Source: patent US20260234223A1

Target: SARS-CoV-2 Delta Spike antigen (SARS-CoV-2 Delta)

**Q.** Which EC50 does the source give for Anti-S1 antibody DZIF-10c here?
**A.** 6.9 nM

**Q.** With Anti-S1 mAb ImdevimAb (antibody) as the substance, how does the EC50 read?
**A.** 0.01 nM
